We go through four molecules from patent US20200024360A1 (Janssen / Centocor, published 2020).

Read-outs that look alike come from different tables or passages of the source.

Assay [1] deals with T1, human PSMA (prostate specific membrane antigen), full length (human, UniProt Q04609 1-750).
T1 construct: On LNCaP or C4-2B cells (endogenous) or transduced HEK293F cells; also called FOLH1_HUMAN; hPSMA
Kind of assay: flow cytometry cell binding assay, bispecific antibody titrated on LNCaP cells (human PSMA). On the procedure: (§1) PSMA×CD3 bispecific antibodies were tested for binding to PSMA positive cell lines LNCAP, human PSMA-HEK, Chimpanzee-PSMA-HEK and Cynomolgous monkey PSMA-HEK. To assess the binding capabilities of the PSMA bispecific antibodies, the cell-binding assay was utilized (described previously). Briefly, PSMA expressing tumor cells are bound by bispecific antibodies at known concentrations and the bound antibody is detected by an anti-human kappa light chain PE conjugated detection reagent (Invitrogen). The Mean Fluorescents Intensity (MFI) is the measure of bound bispecific antibody. The MFI is converted to a relative EC₅₀. EC₅₀ is a commonly used dose-response curve, where the half maximal effective concentration or the EC₅₀ point is defined as the inflection point of the curve. EC₅₀ s were determined by measuring cell bound bispecific and known concentrations. […] The dose response curves were then diluted down to that of background or no bispecific binding. The inflection point of this curve reflects the EC₅₀ point. The calculated EC₅₀ is determined by taking the ug/ml amount of bispecific antibody at the EC₅₀ point and converting it to a molarity value based on the MW of the bispecific antibody. Bispecific antibodies were normalized for protein concentration and then incubated with the same number of cells expressing either human or cyno PSMA. The MFI at each concentration was collected by flow cytometry and plotted as a function of concentration. Data was transformed via log 10 and then plotted. Nonlinear regression of binding curves was done to determine EC₅₀ s. These relative values were used for ranking PSMA binding to target cells.
PSMA×CD3 bispecific antibodies were tested for binding to PSMA positive cell line, LNCAP, to PSMA negative cell line, PC3. To assess the binding capabilities of the PSMA bispecific antibodies, the cell-binding assay was utilized (described previously). Bispecific antibodies were normalized for protein concentration and then incubated with the same number of cells expressing either human or cyno PSMA. The MFI at each concentration was collected by flow cytometry and plotted as a function of concentration.
(A flow cytometer gives signals particle by particle.)

Assay [2] addresses T1, human PSMA (prostate specific membrane …). Described as above. On the procedure: as §1, with “The MFI at each concentration was collected by flow cytometry and plotted as a function of concentration. Data was transformed via log 10 and then plotted. Nonlinear regression of binding curves was done to determine EC₅₀ s. These relative values were used for ranking PSMA binding to target cells.” left out
This is another data set of the same source.

Assay [3] has the same target. Kind of assay: FACS, whole cell binding.
For assay [4], the target named is T2, Cynomolgous monkey PSMA, full length (Macaca fascicularis, UniProt Q04609 1-750 (human entry)).
T2 construct: On transfected HEK293F cells; also called cyno PSMA; EHH56646.1
T2 chain: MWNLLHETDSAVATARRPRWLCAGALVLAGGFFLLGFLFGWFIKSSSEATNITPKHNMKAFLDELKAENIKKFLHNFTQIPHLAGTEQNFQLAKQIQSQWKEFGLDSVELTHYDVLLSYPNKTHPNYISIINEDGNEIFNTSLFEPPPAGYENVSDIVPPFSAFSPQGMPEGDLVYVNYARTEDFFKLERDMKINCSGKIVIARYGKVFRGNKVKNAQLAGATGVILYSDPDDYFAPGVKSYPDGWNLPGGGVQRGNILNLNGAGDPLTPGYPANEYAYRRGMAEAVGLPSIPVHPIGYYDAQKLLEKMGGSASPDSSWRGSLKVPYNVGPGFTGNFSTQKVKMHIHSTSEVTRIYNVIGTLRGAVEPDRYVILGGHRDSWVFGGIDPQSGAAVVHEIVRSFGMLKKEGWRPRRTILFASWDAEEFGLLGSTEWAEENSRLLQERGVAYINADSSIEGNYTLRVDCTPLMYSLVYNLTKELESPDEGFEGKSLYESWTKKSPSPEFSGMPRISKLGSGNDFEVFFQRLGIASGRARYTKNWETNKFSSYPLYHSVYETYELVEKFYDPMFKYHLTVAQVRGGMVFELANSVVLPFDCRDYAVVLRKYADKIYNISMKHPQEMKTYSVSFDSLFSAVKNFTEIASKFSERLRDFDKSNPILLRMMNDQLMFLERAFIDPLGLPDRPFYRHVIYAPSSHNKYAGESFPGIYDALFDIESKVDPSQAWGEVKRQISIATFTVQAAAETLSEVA
Kind of assay: FACS, whole cell binding.

Assay [5] addresses T1, human PSMA (prostate specific membrane …). Kind of assay: flow cytometry, bispecific antibody titrated on LNCaP cells (human PSMA), anti-human kappa light chain PE. On the procedure: as §1
Assay [6] has as its target T2, Cynomolgous monkey PSMA, full length. Kind of assay: flow cytometry, bispecific antibody titrated on cyno PSMA (PSMG5) HEK cells, anti-human kappa light chain PE. As for the experimental part:
as §1, with “The MFI at each concentration was collected by flow cytometry and plotted as a function of concentration. Data was transformed via log 10 and then plotted. Nonlinear regression of binding curves was done to determine EC₅₀ s. These relative values were used for ranking PSMA binding to target cells.” left out

Assay [7] has as its target T3, chimpanzee PSMA, full length (Pan troglodytes, UniProt Q04609 1-750 (human entry)).
T3 construct: On transfected HEK293F cells; also called chimp PSMA; H2Q3K5_PANTR
T3 chain: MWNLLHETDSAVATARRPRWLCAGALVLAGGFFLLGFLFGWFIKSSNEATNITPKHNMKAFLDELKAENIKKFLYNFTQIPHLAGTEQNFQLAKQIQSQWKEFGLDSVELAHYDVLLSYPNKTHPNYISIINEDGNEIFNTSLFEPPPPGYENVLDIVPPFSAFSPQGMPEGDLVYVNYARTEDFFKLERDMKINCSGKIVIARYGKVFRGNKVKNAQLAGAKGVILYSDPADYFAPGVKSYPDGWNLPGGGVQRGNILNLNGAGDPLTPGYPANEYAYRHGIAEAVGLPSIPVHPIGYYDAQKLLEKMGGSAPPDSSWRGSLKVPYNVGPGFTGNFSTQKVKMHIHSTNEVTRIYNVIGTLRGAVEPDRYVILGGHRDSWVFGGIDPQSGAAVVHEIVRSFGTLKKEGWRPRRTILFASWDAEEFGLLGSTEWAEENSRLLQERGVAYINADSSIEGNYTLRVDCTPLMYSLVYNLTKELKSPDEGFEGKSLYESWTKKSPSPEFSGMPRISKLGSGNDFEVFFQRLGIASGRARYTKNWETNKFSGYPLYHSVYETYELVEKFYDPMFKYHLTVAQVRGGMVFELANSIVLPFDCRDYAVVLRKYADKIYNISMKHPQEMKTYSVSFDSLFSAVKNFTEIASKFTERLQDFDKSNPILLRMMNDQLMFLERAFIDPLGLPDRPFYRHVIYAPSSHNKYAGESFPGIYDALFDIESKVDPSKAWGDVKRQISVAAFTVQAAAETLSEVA
Kind of assay: flow cytometry, bispecific antibody titrated on chimp PSMA (PSMG9) HEK cells, anti-human kappa light chain PE. On the procedure: as §1, with “The MFI at each concentration was collected by flow cytometry and plotted as a function of concentration. Data was transformed via log 10 and then plotted. Nonlinear regression of binding curves was done to determine EC₅₀ s. These relative values were used for ranking PSMA binding to target cells.” left out

B1: PS3B27 (bispecific antibody, human IgG4 S228P, kappa, lambda, F234A L235A)
heavy 1: not shown
light 1: not shown
heavy 2: EVQLVESGGGLVQPGGSLRLSCAASGFTFNTYAMNWVRQAPGKGLEWVARIRSKYNNYATYYAASVKGRFTISRDDSKNSLYLQMNSLKTEDTAVYYCARHGNFGNSYVSWFAYWGQGTLVTVSSASTKGPSVFPLAPCSRSTSESTAALGCLVKDYFPEPVTVSWNSGALTSGVHTFPAVLQSSGLYSLSSVVTVPSSSLGTKTYTCNVDHKPSNTKVDKRVESKYGPPCPPCPAPEAAGGPSVFLFPPKPKDTLMISRTPEVTCVVVDVSQEDPEVQFNWYVDGVEVHNAKTKPREEQFNSTYRVVSVLTVLHQDWLNGKEYKCKVSNKGLPSSIEKTISKAKGQPREPQVYTLPPSQEEMTKNQVSLTCLVKGFYPSDIAVEWESNGQPENNYKTTPPVLDSDGSFLLYSKLTVDKSRWQEGNVFSCSVMHEALHNHYTQKSLSLSLGK
light 2: QTVVTQEPSLTVSPGGTVTLTCRSSTGAVTTSNYANWVQQKPGQAPRGLIGGTNKRAPGTPARFSGSLLGGKAALTLSGVQPEDEAEYYCALWYSNLWVFGGGTKLTVLGQPKAAPSVTLFPPSSEELQANKATLVCLISDFYPGAVTVAWKADSSPVKAGVETTTPSKQSNNKYAASSYLSLTPEQWKSHRSYSCQVTHEGSTVEKTVAPTECS
notes: IgG4 PAA; PSMA arm chains first, then CD3 arm (F405L, R409K); also called PSMB127 x CD3B219; PS2B27
A word on the EC50 (read off the curve): it is the concentration giving half of the maximal effect. As for B1, the concentration for a half-maximal effect (EC50 (read off the curve)) in assay [1] and in assay [2] was about 7 nM in each case.

B2: PS3B30 (bispecific antibody, human IgG4 S228P, kappa, lambda, F234A L235A)
heavy 1: not shown
light 1: not shown
heavy 2: EVQLVESGGGLVQPGGSLRLSCAASGFTFNTYAMNWVRQAPGKGLEWVARIRSKYNNYATYYAASVKGRFTISRDDSKNSLYLQMNSLKTEDTAVYYCARHGNFGNSYVSWFAYWGQGTLVTVSSASTKGPSVFPLAPCSRSTSESTAALGCLVKDYFPEPVTVSWNSGALTSGVHTFPAVLQSSGLYSLSSVVTVPSSSLGTKTYTCNVDHKPSNTKVDKRVESKYGPPCPPCPAPEAAGGPSVFLFPPKPKDTLMISRTPEVTCVVVDVSQEDPEVQFNWYVDGVEVHNAKTKPREEQFNSTYRVVSVLTVLHQDWLNGKEYKCKVSNKGLPSSIEKTISKAKGQPREPQVYTLPPSQEEMTKNQVSLTCLVKGFYPSDIAVEWESNGQPENNYKTTPPVLDSDGSFLLYSKLTVDKSRWQEGNVFSCSVMHEALHNHYTQKSLSLSLGK
light 2: QTVVTQEPSLTVSPGGTVTLTCRSSTGAVTTSNYANWVQQKPGQAPRGLIGGTNKRAPGTPARFSGSLLGGKAALTLSGVQPEDEAEYYCALWYSNLWVFGGGTKLTVLGQPKAAPSVTLFPPSSEELQANKATLVCLISDFYPGAVTVAWKADSSPVKAGVETTTPSKQSNNKYAASSYLSLTPEQWKSHRSYSCQVTHEGSTVEKTVAPTECS
notes: IgG4 PAA; PSMA arm chains first, then CD3 arm (F405L, R409K); also called PSMB130 x CD3B219
By EC50 is commonly meant the concentration that produces a half-maximal response. Take B2: the concentration giving a half-maximal response (EC50) in assay [3] lay in the range of 8 to 8.5 nM; in assay [4], 37.8 to 57 nM.

B3: PS3B23 (bispecific antibody, human IgG4 S228P, kappa, lambda, F234A L235A)
heavy 1: not shown
light 1: not shown
heavy 2: EVQLVESGGGLVQPGGSLRLSCAASGFTFNTYAMNWVRQAPGKGLEWVARIRSKYNNYATYYAASVKGRFTISRDDSKNSLYLQMNSLKTEDTAVYYCARHGNFGNSYVSWFAYWGQGTLVTVSSASTKGPSVFPLAPCSRSTSESTAALGCLVKDYFPEPVTVSWNSGALTSGVHTFPAVLQSSGLYSLSSVVTVPSSSLGTKTYTCNVDHKPSNTKVDKRVESKYGPPCPPCPAPEAAGGPSVFLFPPKPKDTLMISRTPEVTCVVVDVSQEDPEVQFNWYVDGVEVHNAKTKPREEQFNSTYRVVSVLTVLHQDWLNGKEYKCKVSNKGLPSSIEKTISKAKGQPREPQVYTLPPSQEEMTKNQVSLTCLVKGFYPSDIAVEWESNGQPENNYKTTPPVLDSDGSFLLYSKLTVDKSRWQEGNVFSCSVMHEALHNHYTQKSLSLSLGK
light 2: QTVVTQEPSLTVSPGGTVTLTCRSSTGAVTTSNYANWVQQKPGQAPRGLIGGTNKRAPGTPARFSGSLLGGKAALTLSGVQPEDEAEYYCALWYSNLWVFGGGTKLTVLGQPKAAPSVTLFPPSSEELQANKATLVCLISDFYPGAVTVAWKADSSPVKAGVETTTPSKQSNNKYAASSYLSLTPEQWKSHRSYSCQVTHEGSTVEKTVAPTECS
notes: IgG4 PAA; PSMA arm chains first, then CD3 arm (F405L, R409K); also called PSMB123 x CD3B219
With B3, in assay [5], the binding result is “binds”.

B4: PS3B25 (bispecific antibody, human IgG4 S228P, kappa, lambda, F234A L235A)
heavy 1: not shown
light 1: not shown
heavy 2: EVQLVESGGGLVQPGGSLRLSCAASGFTFNTYAMNWVRQAPGKGLEWVARIRSKYNNYATYYAASVKGRFTISRDDSKNSLYLQMNSLKTEDTAVYYCARHGNFGNSYVSWFAYWGQGTLVTVSSASTKGPSVFPLAPCSRSTSESTAALGCLVKDYFPEPVTVSWNSGALTSGVHTFPAVLQSSGLYSLSSVVTVPSSSLGTKTYTCNVDHKPSNTKVDKRVESKYGPPCPPCPAPEAAGGPSVFLFPPKPKDTLMISRTPEVTCVVVDVSQEDPEVQFNWYVDGVEVHNAKTKPREEQFNSTYRVVSVLTVLHQDWLNGKEYKCKVSNKGLPSSIEKTISKAKGQPREPQVYTLPPSQEEMTKNQVSLTCLVKGFYPSDIAVEWESNGQPENNYKTTPPVLDSDGSFLLYSKLTVDKSRWQEGNVFSCSVMHEALHNHYTQKSLSLSLGK
light 2: QTVVTQEPSLTVSPGGTVTLTCRSSTGAVTTSNYANWVQQKPGQAPRGLIGGTNKRAPGTPARFSGSLLGGKAALTLSGVQPEDEAEYYCALWYSNLWVFGGGTKLTVLGQPKAAPSVTLFPPSSEELQANKATLVCLISDFYPGAVTVAWKADSSPVKAGVETTTPSKQSNNKYAASSYLSLTPEQWKSHRSYSCQVTHEGSTVEKTVAPTECS
notes: IgG4 PAA; also called PSMB87 x CD3B219
For the molecule B4, the binding result in assay [6] and in assay [7] was “binds” in each case.
